The chains are these.
B1: GST-IAA6 [Arabidopsis thaliana] / ASK1-TIR1 protein complex [Arabidopsis thaliana] (parent)
chain 1: MAKEGLALEITELRLGLPGDNYSEISVCGSSKKKKRVLSDMMTSSALDTENENSVVSSVEDESLPVVKSQAVGWPPVCSYRRKKNNEEASKAIGYVKVSMDGVPYMRKIDLGSSNSYINLVTVLENLFGCLGIGVAKEGKKCEYIIIYEDKDRDWMLVGDVPWQMFKESCKRLRIVKRSDATGFGLQQD
chain 2: MQKRIALSFPEEVLEHVFSFIQLDKDRNSVSLVCKSWYEIERWCRRKVFIGNCYAVSPATVIRRFPKVRSVELKGKPHFADFNLVPDGWGGYVYPWIEAMSSSYTWLEEIRLKRMVVTDDCLELIAKSFKNFKVLVLSSCEGFSTDGLAAIAATCRNLKELDLRESDVDDVSGHWLSHFPDTYTSLVSLNISCLASEVSFSALERLVTRCPNLKSLKLNRAVPLEKLATLLQRAPQLEELGTGGYTAEVRPDVYSGLSVALSGCKELRCLSGFWDAVPAYLPAVYSVCSRLTTLNLSYATVQSYDLVKLLCQCPKLQRLWVLDYIEDAGLEVLASTCKDLRELRVFPSEPFVMEPNVALTEQGLVSVSMGCPKLESVLYFCRQMTNAALITIARNRPNMTRFRLCIIEPKAPDYLTLEPLDIGFGAIVEHCKDLRRLSLSGLLTDKVFEYIGTYAKKMEMLSVAFAGDSDLGMHHVLSGCDSLRKLEIRDCPFGDKALLANASKLETMRSLWMSSCSVSFGACKLLGQKMPKLNVEVIDERGAPDSRPESCPVERVFIYRTVAGPRFDMPGFVWNMDQDSTMRFSRQIITTNGL
chain 3: MSAKKIVLKSSDGESFEVEEAVALESQTIAHMVEDDCVDNGVPLPNVTSKILAKVIEYCKRHVEAAASKAEAVEGAATSDDDLKAWDADFMKIDQATLFELILAANYLNIKNLLDLTCQTVADMIKGKTPEEIRTTFNIKNDFTPEEEEEVRRENQWAFE

The assay covers variants of B1. Nature of the assay: one-point saturation binding assay with [3H]IAA (radioligand binding). The settings on record: 200 nM [3H]IAA, read off a plot.
In the case of chain 1 C78R, the response was 3100 c.p.m.
